Experiments:
Test in all cases: purified protein
[1] = test system: CC(C)(OO)c1ccccc1; assay type: biochemical, Pseudomonas aeruginosa; settings: E. coli Trx/TrxR, NADPH 150 µM, HEPES pH 7.4, 37 °C, DTPA 100 µM, azide 1 mM, fit to low-substrate phase only
[2] = test system: CC(C)(OO)c1ccccc1; settings: S. cerevisiae Trx1/TrxR1, NADPH 150 µM, HEPES pH 7.4, 37 °C, DTPA 100 µM, azide 1 mM, fit to low-substrate phase only
[3] = substrate: CC(C)(OO)c1ccccc1; settings: E. coli Trx/TrxR, NADPH 150 µM, HEPES pH 7.4, 37 °C, DTPA 100 µM, azide 1 mM, fit to low-substrate phase only

Molecule: PaAhpC (Pseudomonas aeruginosa UCBPP-PA14)
- Km [1]: 82 (±14) µM
- Vmax [1]: 34.2 µM/min
- kcat [1]: 0.18 ± 0.01 s⁻¹
- kcat/Km [1]: 2000 ± 200 M⁻¹ s⁻¹

Molecule: HsPrx2 (Homo sapiens)
- Km [2]: 57 (±17) µM
- Vmax [2]: 101 µM/min
- kcat [2]: 0.56 ± 0.09 s⁻¹
- kcat/Km [2]: 9800 ± 1300 M⁻¹ s⁻¹

B1: SeAhpC (Staphylococcus epidermidis RP62A) (protein)
chain: MSLINKEILPFTAQAYDPKKDEFKEVTQEDFKGSWNVVCFYPADFSFVCPTELEDLQNQYAKLQELGVNVYSVSTDTHFVHKAWHDHSDAISKLEYSMIGDPSQTITRNFDVLDEETGLAQRGTFIIDPDGVVQAAEINADGIGRDASTLVNKIKAAQYVRQHPGEVCPAKWEEGSESLQPGLDLVGKI
- Km [3]: 76 (±10) µM
- Vmax [3]: 35.4 µM/min
- kcat [3]: 0.19 ± 0.01 s⁻¹
- kcat/Km [3]: 2500 ± 100 M⁻¹ s⁻¹
